4 molecules from patent US20160039947A1 (Eli Lilly, published 2016) can be followed below.

For one test, the target named is T1, hEGFR-Fc (human, UniProt P00533 25-645).
T1 construct: Biotin-labelled (EZ-Link Sulfo-NHS-LC-Biotin) as detection reagent in the ELISA; unlabelled second injection in SPR; also called hEGFR-Fc-biotin; not shown: Fc part of the bought fusion protein
Briefly: sandwich ELISA: hHER-2-Fc coated, BsAb, hEGFR-Fc-biotin detection. As for the experimental part:
(§1) Two sandwich ELISAs are developed, one for detecting anti-HER-2/anti-EGFR BsAb activity and one for detecting anti-cMET/anti-Axl BsAb activity. For both ELISAs, clear 96-well round bottom high binding Immulon microtiter plates (Greiner bio-one, cat#650061) are coated overnight at 2-8° C. with 50 μL/well 1 μg/mL hHER-2-Fc or 1 μg/mL hHGFR(cMet)-Fc (both from R&D systems) in a 50 mM Na₂CO₃ pH 8 buffer. The plates are washed 4 times with PB ST and blocked with 100 μL/well casein buffer (Pierce) for 1 hr at 37° C. The plates are then washed 4 times with PBST and the parental IgG controls or BsAb IgG test articles are added at 50 μL/well and 5 μg/mL and serially diluted 1:3 down the plate. The test articles are incubated on the plate for 1 hr at 37° C. The plates are then washed 4 times with PBST and 50 μL/well 0.2 μg/mL hEGFR-Fc-biotin or hAxl-Fc-biotin (both from R&D systems) is added for 1 hr at 37° C. The plates are then washed 4 times with PBST followed by the addition of a 50 μL/well streptavidin-HRP (Jackson Labs) diluted 1:2000 in PBST. The streptavidin-HRP is incubated in each well for 1 hr at 37° C. The plates are then washed 4 times with PBST and 100 μL/well 1-component TMB substrate is added (KPL laboratories). After approximately 10 minutes, […] 1% H₃PO₄ (in H₂O) is added to each plate to quench the reaction. Absorbance (450 nm) of every well in the plates is read using a SpectraMax UV plate reader (Molecular Devices). Biotin-labeling of the hEGFR-Fc and hAxl-Fc proteins is performed using EZ-Link Sulfo-NHS-LC-Biotin (Thermo Scientific) according to the manufacturer's protocol.
In general terms: ELISA stands for enzyme-linked immunosorbent assay.

The next test addresses T2, hHGFR(cMet)-Fc (human, UniProt P08581 25-932).
T2 construct: Coated in the sandwich ELISA; second injection in SPR; not shown: Fc part of the bought fusion protein
Briefly: sandwich ELISA: hHGFR(cMet)-Fc coated, BsAb, hAxl-Fc-biotin detection. As for the experimental part: as §1

T2 sequence (P08581 25-932): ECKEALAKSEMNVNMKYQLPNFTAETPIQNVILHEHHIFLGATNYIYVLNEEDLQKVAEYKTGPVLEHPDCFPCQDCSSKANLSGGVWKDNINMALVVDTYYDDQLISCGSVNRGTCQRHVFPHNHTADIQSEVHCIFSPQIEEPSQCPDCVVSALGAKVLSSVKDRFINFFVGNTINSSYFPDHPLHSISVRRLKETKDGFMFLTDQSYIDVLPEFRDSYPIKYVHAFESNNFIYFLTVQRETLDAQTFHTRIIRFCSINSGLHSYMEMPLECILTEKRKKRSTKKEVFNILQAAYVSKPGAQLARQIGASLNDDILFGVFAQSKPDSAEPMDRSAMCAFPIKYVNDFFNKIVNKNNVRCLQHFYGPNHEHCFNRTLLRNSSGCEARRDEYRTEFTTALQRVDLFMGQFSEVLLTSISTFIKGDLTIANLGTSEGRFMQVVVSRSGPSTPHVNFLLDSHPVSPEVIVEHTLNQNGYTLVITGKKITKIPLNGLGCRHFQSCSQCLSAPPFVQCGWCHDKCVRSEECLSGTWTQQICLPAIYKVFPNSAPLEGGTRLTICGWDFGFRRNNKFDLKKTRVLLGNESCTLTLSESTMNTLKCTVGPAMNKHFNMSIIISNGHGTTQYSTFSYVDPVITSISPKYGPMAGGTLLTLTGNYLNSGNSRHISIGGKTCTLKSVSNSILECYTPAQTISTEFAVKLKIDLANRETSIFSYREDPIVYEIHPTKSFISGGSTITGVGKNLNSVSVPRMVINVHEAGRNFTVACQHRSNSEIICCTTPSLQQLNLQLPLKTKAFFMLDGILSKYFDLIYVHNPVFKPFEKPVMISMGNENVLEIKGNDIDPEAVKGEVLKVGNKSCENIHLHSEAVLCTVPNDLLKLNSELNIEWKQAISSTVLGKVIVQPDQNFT

B1: HEControl λλ (anti-HER-2/anti-EGFR IgG BsAb without Fab redesigns) (bispecific antibody)
heavy 1: EVQLVESGGGLVQPGGSLRLSCAASGFTFTDYTMDWVRQAPGKGLEWVADVNPNSGGSIYNQRFKGRFTLSVDRSKNTLYLQMNSLRAEDTAVYYCARNLGPSFYFDYWGQGTLVTVSSASTKGPSVFPLAPSSKSTSGGTAALGCLVKDYFPEPVTVSWNSGALTSGVHTFPAVLQSSGLYSLSSVVTVPSSSLGTQTYICNVNHKPSNTKVDKKVEPKSCDKTHTCPPCPAPELLGGPSVFLFPPKPKDTLMISRTPEVTCVVVDVSHEDPEVKFNWYVDGVEVHNAKTKPREEQYQSTYRVVSVLTVLHQDWLNGKEYKCKVSNKALPAPIEKTISKAKGQPREPQVYTLPPSRDELTKNQVSLTCLVKGFYPSDIAVEWESNGQPENNYDTTPPVLDSDGSFFLYSDLTVDKSRWQQGNVFSCSVMHEALHNHYTQKSLSLSPG
light 1: DIQMTQSPSSLSASVGDRVTITCKASQDVSIGVAWYQQKPGKAPKLLIYSASYRYTGVPSRFSGSGSGTDFTLTISSLQPEDFATYYCQQYYIYPYTFGQGTKVEIKGQPKAAPSVTLFPPSSEELQANKATLVCLISDFYPGAVTVAWKADSSPVKAGVETTTPSKQSNNKYAASSYLSLTPEQWKSHRSYSCQVTHEGSTVEKTVAPTEC
heavy 2: QVQLVQSGAEVKKPGASVKVSCKASGYTFTSHWMHWVRQAPGQGLEWIGEFNPSNGRTNYNEKFKSKATMTVDTSTNTAYMELSSLRSEDTAVYYCASRDYDYDGRYFDYWGQGTLVTVSSASTKGPSVFPLAPSSKSTSGGTAALGCLVKDYFPEPVTVSWNSGALTSGVHTFPAVLQSSGLYSLSSVVTVPSSSLGTQTYICNVNHKPSNTKVDKKVEPKSCDKTHTCPPCPAPELLGGPSVFLFPPKPKDTLMISRTPEVTCVVVDVSHEDPEVKFNWYVDGVEVHNAKTKPREEQYQSTYRVVSVLTVLHQDWLNGKEYKCKVSNKALPAPIEKTISKAKGQPREPQVYTLPPSRKELTKNQVSLTCLVKGFYPSDIAVEWESNGQPENNYKTTPPVLKSDGSFFLYSKLTVDKSRWQQGNVFSCSVMHEALHNHYTQKSLSLSPG
light 2: DIQMTQSPSSLSASVGDRVTITCSASSSVTYMYWYQQKPGKAPKLLIYDTSNLASGVPSRFSGSGSGTDYTFTISSLQPEDIATYYCQQWSSHIFTFGQGTKVEIKGQPKAAPSVTLFPPSSEELQANKATLVCLISDFYPGAVTVAWKADSSPVKAGVETTTPSKQSNNKYAASSYLSLTPEQWKSHRSYSCQVTHEGSTVEKTVAPTEC
notes: The preparation held 65% correctly paired heterotetramer by LC/MS
Take B1: in the test with hEGFR-Fc, the binding result is “binds”.

B2: HEControl λκ (anti-HER-2/anti-EGFR IgG BsAb without Fab redesigns) (bispecific antibody)
heavy 1: EVQLVESGGGLVQPGGSLRLSCAASGFTFTDYTMDWVRQAPGKGLEWVADVNPNSGGSIYNQRFKGRFTLSVDRSKNTLYLQMNSLRAEDTAVYYCARNLGPSFYFDYWGQGTLVTVSSASTKGPSVFPLAPSSKSTSGGTAALGCLVKDYFPEPVTVSWNSGALTSGVHTFPAVLQSSGLYSLSSVVTVPSSSLGTQTYICNVNHKPSNTKVDKKVEPKSCDKTHTCPPCPAPELLGGPSVFLFPPKPKDTLMISRTPEVTCVVVDVSHEDPEVKFNWYVDGVEVHNAKTKPREEQYQSTYRVVSVLTVLHQDWLNGKEYKCKVSNKALPAPIEKTISKAKGQPREPQVYTLPPSRDELTKNQVSLTCLVKGFYPSDIAVEWESNGQPENNYDTTPPVLDSDGSFFLYSDLTVDKSRWQQGNVFSCSVMHEALHNHYTQKSLSLSPG
light 1: DIQMTQSPSSLSASVGDRVTITCKASQDVSIGVAWYQQKPGKAPKLLIYSASYRYTGVPSRFSGSGSGTDFTLTISSLQPEDFATYYCQQYYIYPYTFGQGTKVEIKGQPKAAPSVTLFPPSSEELQANKATLVCLISDFYPGAVTVAWKADSSPVKAGVETTTPSKQSNNKYAASSYLSLTPEQWKSHRSYSCQVTHEGSTVEKTVAPTEC
heavy 2: QVQLVQSGAEVKKPGASVKVSCKASGYTFTSHWMHWVRQAPGQGLEWIGEFNPSNGRTNYNEKFKSKATMTVDTSTNTAYMELSSLRSEDTAVYYCASRDYDYDGRYFDYWGQGTLVTVSSASTKGPSVFPLAPSSKSTSGGTAALGCLVKDYFPEPVTVSWNSGALTSGVHTFPAVLQSSGLYSLSSVVTVPSSSLGTQTYICNVNHKPSNTKVDKKVEPKSCDKTHTCPPCPAPELLGGPSVFLFPPKPKDTLMISRTPEVTCVVVDVSHEDPEVKFNWYVDGVEVHNAKTKPREEQYQSTYRVVSVLTVLHQDWLNGKEYKCKVSNKALPAPIEKTISKAKGQPREPQVYTLPPSRKELTKNQVSLTCLVKGFYPSDIAVEWESNGQPENNYKTTPPVLKSDGSFFLYSKLTVDKSRWQQGNVFSCSVMHEALHNHYTQKSLSLSPG
light 2: DIQMTQSPSSLSASVGDRVTITCSASSSVTYMYWYQQKPGKAPKLLIYDTSNLASGVPSRFSGSGSGTDYTFTISSLQPEDIATYYCQQWSSHIFTFGQGTKVEIKRTVAAPSVFIFPPSDEQLKSGTASVVCLLNNFYPREAKVQWKVDNALQSGNSQESVTEQDSKDSTYSLSSTLTLSKADYEKHKVYACEVTHQGLSSPVTKSFNRGEC
With B2, in the test with hEGFR-Fc, the binding result is “binds”.

B3: MAControl λλ (anti-cMET/anti-Axl IgG BsAb without Fab redesigns) (bispecific antibody)
heavy 1: EVQLVESGGGLVQPGGSLRLSCAASGYTFTSYWLHWVRQAPGKGLEWVGMIDPSNSDTRFNPNFKDRFTISADTSKNTAYLQMNSLRAEDTAVYYCATYRSYVTPLDYWGQGTLVTVSSASTKGPSVFPLAPSSKSTSGGTAALGCLVKDYFPEPVTVSWNSGALTSGVHTFPAVLQSSGLYSLSSVVTVPSSSLGTQTYICNVNHKPSNTKVDKKVEPKSCDKTHTCPPCPAPELLGGPSVFLFPPKPKDTLMISRTPEVTCVVVDVSHEDPEVKFNWYVDGVEVHNAKTKPREEQYQSTYRVVSVLTVLHQDWLNGKEYKCKVSNKALPAPIEKTISKAKGQPREPQVYTLPPSRDELTKNQVSLTCLVKGFYPSDIAVEWESNGQPENNYDTTPPVLDSDGSFFLYSDLTVDKSRWQQGNVFSCSVMHEALHNHYTQKSLSLSPG
light 1: DIQMTQSPSSLSASVGDRVTITCKSSQSLLYTSSQKNYLAWYQQKPGKAPKLLIYWASTRESGVPSRFSGSGSGTDFTLTISSLQPEDFATYYCQQYYAYPWTFGQGTKVEIKGQPKAAPSVTLFPPSSEELQANKATLVCLISDFYPGAVTVAWKADSSPVKAGVETTTPSKQSNNKYAASSYLSLTPEQWKSHRSYSCQVTHEGSTVEKTVAPTEC
heavy 2: EVQLVESGGGLVQPGGSLRLSCAASGFSLSGSWIHWVRQAPGKGLEWVGWINPYRGYAYYADSVKGRFTISADTSKNTAYLQMNSLRAEDTAVYYCAREYSGWGGSSVGYAMDYWGQGTLVTVSSASTKGPSVFPLAPSSKSTSGGTAALGCLVKDYFPEPVTVSWNSGALTSGVHTFPAVLQSSGLYSLSSVVTVPSSSLGTQTYICNVNHKPSNTKVDKKVEPKSCDKTHTCPPCPAPELLGGPSVFLFPPKPKDTLMISRTPEVTCVVVDVSHEDPEVKFNWYVDGVEVHNAKTKPREEQYQSTYRVVSVLTVLHQDWLNGKEYKCKVSNKALPAPIEKTISKAKGQPREPQVYTLPPSRKELTKNQVSLTCLVKGFYPSDIAVEWESNGQPENNYKTTPPVLKSDGSFFLYSKLTVDKSRWQQGNVFSCSVMHEALHNHYTQKSLSLSPG
light 2: DIQMTQSPSSLSASVGDRVTITCRASQDVSTAVAWYQQKPGKAPKLLIYSASFLYSGVPSRFSGSGSGTDFTLTISSLQPEDFATYYCQQSYTTPPTFGQGTKVEIKGQPKAAPSVTLFPPSSEELQANKATLVCLISDFYPGAVTVAWKADSSPVKAGVETTTPSKQSNNKYAASSYLSLTPEQWKSHRSYSCQVTHEGSTVEKTVAPTEC
For the molecule B3, in the test with hHGFR(cMet)-Fc, the binding result is “binds”.

B4: MADesign λλ (anti-cMET/anti-Axl IgG BsAb with Fab redesigns) (bispecific antibody)
heavy 1: EVQLVESGGGLVQPGGSLRLSCAASGYTFTSYWLHWVRKAPGKGLEWVGMIDPSNSDTRFNPEFKDRFTISADTSKNTAYLQMNSLRAEDTAVYYCATYRSYVTPLDYWGQGTLVTVSSASTKGPSVFPLAPSSKSTSGGTAALGCLVKDYFPEPVTVSWNSGALTSGVATGPAVLQSSGLYSLSSVVTVPSSSLGTQTYICNVNHKPSNTKVDKKVEPKSCDKTHTCPPCPAPELLGGPSVFLFPPKPKDTLMISRTPEVTCVVVDVSHEDPEVKFNWYVDGVEVHNAKTKPREEQYQSTYRVVSVLTVLHQDWLNGKEYKCKVSNKALPAPIEKTISKAKGQPREPQVYTLPPSRDELTKNQVSLTCLVKGFYPSDIAVEWESNGQPENNYDTTPPVLDSDGSFFLYSDLTVDKSRWQQGNVFSCSVMHEALHNHYTQKSLSLSPG
light 1: RIQMTQSPSSLSASVGDRVTITCKSSQSLLYTSSQKNYLAWYQDKPGKAPKLLIYWASTRESGVPSRFSGSGSGTDFTLTISSLQPEDFATYYCQQYYAYPWTFGQGTKVEIKGQPKAAPSVTLFPPSSEELQANKATLVCYISDFYPGAVTVAWKADSSPVKAGVETTTPSKQSNNKYAAWSYLSLTPEQWKSHRSYSCQVTHEGSTVEKTVAPTEC
heavy 2: EVQLVESGGGLVQPGGSLRLSCAASGFSLSGSWIHWVRYAPGKGLEWVGWINPYRGYAYYADSVKGRFTISADTSKNTAYLQMNSLRAEDTAVYYCAREYSGWGGSSVGYAMDYWGQGTLVTVSSASTKGPSVFPLAPSSKSTSGGTAALGCLVKDYFPEPVTVSWNSGALTSGVHTFPAVLQSSGLYSLSSVVTVPSSSLGTQTYICNVNHKPSNTKVDKKVEPKSCDKTHTCPPCPAPELLGGPSVFLFPPKPKDTLMISRTPEVTCVVVDVSHEDPEVKFNWYVDGVEVHNAKTKPREEQYQSTYRVVSVLTVLHQDWLNGKEYKCKVSNKALPAPIEKTISKAKGQPREPQVYTLPPSRKELTKNQVSLTCLVKGFYPSDIAVEWESNGQPENNYKTTPPVLKSDGSFFLYSKLTVDKSRWQQGNVFSCSVMHEALHNHYTQKSLSLSPG
light 2: DIQMTQSPSSLSASVGDRVTITCRASQDVSTAVAWYQRKPGKAPKLLIYSASFLYSGVPSRFSGSGSGTDFTLTISSLQPEDFATYYCQQSYTTPPTFGQGTKVEIKGQPKAAPSVTLFPPSSEELQANKATLVCLISDFYPGAVTVAWKADSSPVKAGVETTTPSKQSNNKYAASSYLSLTPEQWKSHRSYSCQVTHEGSTVEKTVAPTEC
notes: also called MA Designs
In the case of B4, the binding result with hHGFR(cMet)-Fc was “binds”.
